The results in this text go back to the supplement of paper PMC10567573.

The labels stand for the following.
B1: FBXO33 (parent)
chain: RLRGLLRVLRGRPGAGSRRRGRMA
B2: TOR1AIP2 (parent)
chain: SPGHSSAGQEGEDTLRRRLLAPEA
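Further: lentivirally expressed fusions sorted by FACS into six bins by GFP to DsRed ratio, PSI derived from sequencing read proportions per bin multiplied by bin number.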

The first series covers variants of B1. The experiment in a line: protein stability index of a GFP-peptide fusion (GPS, HEK-293T) (PSI 1-6); higher = more stable. The note with it: c terminus: a fixed tail appended.
Consider RLRGLGRVLRGRPGAGSRRRGRMA, for which the protein stability index was 4.8.

As to RLRGLDRVLRGRPGAGSRRRGRMA, the protein stability index is 5.1. Consider RLRGLCRVLRGRPGAGSRRRGRMA, for which the protein stability index was 2.07. Still for that read-out and setting: the result for RLRGLARVLRGRPGAGSRRRGRMA reads 3.57; that for RLRGLERVLRGRPGAGSRRRGRMA, 2.75.

For RLDGLLRVLRGRPGAGSRRRGRMA, the protein stability index was determined as 2.67. With RLMGLLRVLRGRPGAGSRRRGRMA, the protein stability index came out at 1.54. Take RLVGLLRVLRGRPGAGSRRRGRMA: the protein stability index worked out at 1.02. On to RLQGLLRVLRGRPGAGSRRRGRMA, for which the protein stability index is 2.21. Still for that read-out and setting: the value for RLTGLLRVLRGRPGAGSRRRGRMA was 2.23; that for RLKGLLRVLRGRPGAGSRRRGRMA was 2.83; that for RERGLLRVLRGRPGAGSRRRGRMA was 3.99. Still for that read-out and setting: the value for RKRGLLRVLRGRPGAGSRRRGRMA was 3.56.

Take RFRGLLRVLRGRPGAGSRRRGRMA: the protein stability index is 2.1. For the variant RWRGLLRVLRGRPGAGSRRRGRMA, the protein stability index was 3.3. Take RHRGLLRVLRGRPGAGSRRRGRMA: the protein stability index worked out at 4.34. The same measure, in the same setting: the value for RPRGLLRVLRGRPGAGSRRRGRMA was 4.19; that for RMRGLLRVLRGRPGAGSRRRGRMA was 3.22; that for RQRGLLRVLRGRPGAGSRRRGRMA was 5.05. As for RLRGSLRVLRGRPGAGSRRRGRMA, the protein stability index was 4.64. As for RLRGQLRVLRGRPGAGSRRRGRMA, the protein stability index is 3.78. For RLRGGLRVLRGRPGAGSRRRGRMA, the protein stability index was 4.71.

With RLRGELRVLRGRPGAGSRRRGRMA, the protein stability index came to 3.98. Same read-out and setting: the result for RLRGNLRVLRGRPGAGSRRRGRMA reads 4.52; that for RLRGVLRVLRGRPGAGSRRRGRMA, 2.71; that for RLRGMLRVLRGRPGAGSRRRGRMA, 2.88. Still for that read-out and setting: the value for RLRGYLRVLRGRPGAGSRRRGRMA was 3.49; that for RLRGPLRVLRGRPGAGSRRRGRMA was 4.32; that for RLRGDLRVLRGRPGAGSRRRGRMA was 4.05. Take RLRGCLRVLRGRPGAGSRRRGRMA: the protein stability index was found to be 3.17. On the same count and under the same terms, the value for RLRGALRVLRGRPGAGSRRRGRMA was 4.21; that for RLRGWLRVLRGRPGAGSRRRGRMA was 1.85; that for RLRLLLRVLRGRPGAGSRRRGRMA was 2.2. For the variant RLRPLLRVLRGRPGAGSRRRGRMA, the protein stability index worked out at 2.23. Consider RLRDLLRVLRGRPGAGSRRRGRMA, for which the protein stability index came out at 1.88.

On to RLRRLLRVLRGRPGAGSRRRGRMA, for which the protein stability index turned out to be 2.06. The same measure, in the same setting: the value for RLRHLLRVLRGRPGAGSRRRGRMA was 1.29; that for RLRELLRVLRGRPGAGSRRRGRMA was 2.08. For the variant RLRCLLRVLRGRPGAGSRRRGRMA, the protein stability index was 1.45.

With GLRGLLRVLRGRPGAGSRRRGRMA, the protein stability index was determined as 1.84.

On to WLRGLLRVLRGRPGAGSRRRGRMA, for which the protein stability index amounted to 1.69. Regarding CLRGLLRVLRGRPGAGSRRRGRMA, the protein stability index worked out at 1.2. Still for that read-out and setting: the result for FLRGLLRVLRGRPGAGSRRRGRMA reads 1.53; that for DLRGLLRVLRGRPGAGSRRRGRMA, 2.92; that for LLRGLLRVLRGRPGAGSRRRGRMA, 1.59.

Take ALRGLLRVLRGRPGAGSRRRGRMA: the protein stability index was 1.7. On the same count and under the same terms, the value for QLRGLLRVLRGRPGAGSRRRGRMA was 2.02; that for SLRGLLRVLRGRPGAGSRRRGRMA was 1.75. As for NLRGLLRVLRGRPGAGSRRRGRMA, the protein stability index was 2.01.

A further series covers variants of B2. The series is described as above. The note with it: c terminus: a fixed tail appended.
Take SPGHSSAGQEGEDTLRRRLLAPEM: the protein stability index was found to be 2.76. SPGHSSAGQEGEDTLRRRLLAPEF: the protein stability index is 3.98.

Take SPGHSSAGQEGEDTLRRRLLAPED: the protein stability index turned out to be 5.29.

As to SPGHSSAGQEGEDTLRRRLLAPEL, the protein stability index was 3.02. On to SPGHSSAGQEGEDTLRRRLLAPEG, for which the protein stability index is 5.14. As to SPGHSSAGQEGEDTLRRRLLAPEE, the protein stability index stood at 5.36. Same read-out and setting: the result for SPGHSSAGQEGEDTLRRRLLAPEN reads 4.83. Still for that read-out and setting: the value for SPGHSSAGQEGEDTLRRRLLAPEV was 4.59; that for SPGHSSAGQEGEDTLRRRLLAPEP was 4.94. Still for that read-out and setting: the result for SPGHSSAGQEGEDTLRRRLLAPEI reads 4.2; that for SPGHSSAGQEGEDTLRRRLLAPET, 4.61; that for SPGHSSAGQEGEDTLRRRLLAPEW, 2.94.

With SPGHSSAGQEGEDTLRRRLLAPEK, the protein stability index worked out at 4.82. On the same count and under the same terms, the value for SPGHSSAGQEGEDTLRRRLLAPES was 4.35; that for SPGHSSAGQEGEDTLRRRLLAPEH was 4.43; that for SPGHSSAGQEGEDTLRRRLLAPEY was 3.42. Same read-out and setting: the value for SPGHSSAGQEGEDTLRRRLLAPEC was 4.27. Same read-out and setting: the result for SPGHSSAGQEGEDTLRRRLLAPEQ reads 4.82; that for SPGHSSAGQEGEDTLRRRLLAPER, 4.54; that for SPGHSSAGQEGEDTLRQRLLAPEA, 4.37. Regarding SPGHSSAGQEGEDTLRWRLLAPEA, the protein stability index is 2.36. SPGHSSAGQEGEDTLRSRLLAPEA: the protein stability index came out at 4.71. Turning to SPGHSSAGQEGEDTLRYRLLAPEA, the protein stability index is 2.48. On to SPGHSSAGQEGEDTLRVRLLAPEA, for which the protein stability index was 3.9. The same measure, in the same setting: the result for SPGHSSAGQEGEDTLRTRLLAPEA reads 4.58; that for SPGHSSAGQEGEDTLRRRLLCPEA, 3.31.

For SPGHSSAGQEGEDTLRRRLLKPEA, the protein stability index worked out at 4.89. In the case of SPGHSSAGQEGEDTLRRRLLWPEA, the protein stability index turned out to be 4.16.

SPGHSSAGQEGEDTLRRRLLPPEA: the protein stability index came out at 5.09. On to SPGHSSAGQEGEDTLRRRLLSPEA, for which the protein stability index worked out at 3.08. SPGHSSAGQEGEDTLRRRLLTPEA: the protein stability index came out at 5.39.

Regarding SPGHSSAGQEGEDTLRRRLLGPEA, the protein stability index turned out to be 5.31.

In the case of SPGHSSAGQEGEDTLRRRLLLPEA, the protein stability index turned out to be 4.58.

Regarding SPGHSSAGQEGEDTLRRRLLQPEA, the protein stability index is 4.94. Regarding SPGHSSAGQEGEDTLRRRLLYPEA, the protein stability index was 4.38. Same read-out and setting: the result for SPGHSSAGQEGEDTLRRRLLRPEA reads 4.89; that for SPGHSSAGQEGEDTLRRRLLVPEA, 4.86; that for SPGHSSAGQEGEDTLRRRLLHPEA, 5.26. For the variant SPGHSSAGQEGEDTLRRRLLDPEA, the protein stability index turned out to be 5.37. Same read-out and setting: the result for SPGHSSAGQEGEDTLRRRLLNPEA reads 4.9; that for SPGHSSAGQEGEDTLRRRLLMPEA, 4.19. Same read-out and setting: the value for SPGHSSAGQEGEDTLRRRLLEPEA was 5.23; that for SPGHSSAGQEGEDTLRRRLLFPEA was 4.71. Same read-out and setting: the value for SPGHSSAGQEGEDTLRRRLLIPEA was 4.51; that for SPGHSSAGQEGEDTLRRRLCAPEA was 5.49.
